{"source": "the supplement of paper PMC9112550", "about": "“Optimization of the antimicrobial peptide Bac7 by deep mutational scanning” (BMC Biology, 2022);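 note: peptides expressed intracellularly from a pBAD plasmid library in pooled LB shake-flask culture, induced with 0.3% L-arabinose, DNA abundance read by NGS, three biological replicates, DESeq2 with apeglm shrinkage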", "data": [{"tested_on": "Escherichia coli TOP10", "assay": "shrunken log2 fold change of peptide-encoding DNA abundance (4.5 h post-induction vs induction); higher = less antimicrobial activity (less host growth inhibition)", "details": "time post-induction: 4.5 h; library: site-saturation at positions 5, 18, 19, 20", "values": [{"sequence": "RRIRLRPPRLPRPRPRPIFLPRP", "shrunken log2 fold change": -0.333}, {"sequence": "RRIRDRPPRLPRPRPRPACPPRP", "shrunken log2 fold change": 0.962}, {"sequence": "RRIRGRPPRLPRPRPRPYDFPRP", "shrunken log2 fold change": -0.0968}, {"sequence": "RRIRIRPPRLPRPRPRPFEFPRP", "shrunken log2 fold change": -0.00107}, {"sequence": "RRIRLRPPRLPRPRPRPIHLPRP", "shrunken log2 fold change": -0.453}, {"sequence": "RRIRMRPPRLPRPRPRPEQCPRP", "shrunken log2 fold change": -0.00138}, {"sequence": "RRIRMRPPRLPRPRPRPEAMPRP", "shrunken log2 fold change": 0.204}, {"sequence": "RRIRTRPPRLPRPRPRPYNVPRP", "shrunken log2 fold change": -0.297}, {"sequence": "RRIRPRPPRLPRPRPRPEKQPRP", "shrunken log2 fold change": -0.0353}, {"sequence": "RRIRNRPPRLPRPRPRPIFQPRP", "shrunken log2 fold change": -0.0287}, {"sequence": "RRIRTRPPRLPRPRPRPHARPRP", "shrunken log2 fold change": 0.158}, {"sequence": "RRIRFRPPRLPRPRPRPGVFPRP", "shrunken log2 fold change": -0.227}, {"sequence": "RRIRQRPPRLPRPRPRPSLPPRP", "shrunken log2 fold change": 0.289}, {"sequence": "RRIRSRPPRLPRPRPRPEWGPRP", "shrunken log2 fold change": 0.0115}, {"sequence": "RRIRERPPRLPRPRPRPTQNPRP", "shrunken log2 fold change": 0.262}, {"sequence": "RRIRHRPPRLPRPRPRPVDAPRP", "shrunken log2 fold change": 0.131}, {"sequence": "RRIRHRPPRLPRPRPRPWNMPRP", "shrunken log2 fold change": -0.14}, {"sequence": "RRIRGRPPRLPRPRPRPRVQPRP", "shrunken log2 fold change": 0.218}, {"sequence": "RRIRDRPPRLPRPRPRPMPPPRP", "shrunken log2 fold change": 0.361}, {"sequence": "RRIRVRPPRLPRPRPRPLLQPRP", "shrunken log2 fold change": 0.0881}, {"sequence": "RRIRNRPPRLPRPRPRPPGHPRP", "shrunken log2 fold change": 0.463}, {"sequence": "RRIRIRPPRLPRPRPRPSMKPRP", "shrunken log2 fold change": -0.56}, {"sequence": "RRIRDRPPRLPRPRPRPWPMPRP", "shrunken log2 fold change": -0.0379}, {"sequence": "RRIRWRPPRLPRPRPRPAAVPRP", "shrunken log2 fold change": 0.806}, {"sequence": "RRIRHRPPRLPRPRPRPNCHPRP", "shrunken log2 fold change": -0.444}, {"sequence": "RRIRQRPPRLPRPRPRPMYVPRP", "shrunken log2 fold change": -0.0439}, {"sequence": "RRIRPRPPRLPRPRPRPHGDPRP", "shrunken log2 fold change": -0.0431}, {"sequence": "RRIRWRPPRLPRPRPRPWYKPRP", "shrunken log2 fold change": -0.1}, {"sequence": "RRIRLRPPRLPRPRPRPLMHPRP", "shrunken log2 fold change": 0.0668}, {"sequence": "RRIRPRPPRLPRPRPRPDRQPRP", "shrunken log2 fold change": 0.099}, {"sequence": "RRIRARPPRLPRPRPRPLEGPRP", "shrunken log2 fold change": 0.564}, {"sequence": "RRIRNRPPRLPRPRPRPGVYPRP", "shrunken log2 fold change": -0.241}, {"sequence": "RRIRPRPPRLPRPRPRPKYTPRP", "shrunken log2 fold change": -0.414}, {"sequence": "RRIRNRPPRLPRPRPRPMYQPRP", "shrunken log2 fold change": -0.201}, {"sequence": "RRIRKRPPRLPRPRPRPERHPRP", "shrunken log2 fold change": 0.105}, {"sequence": "RRIRRRPPRLPRPRPRPTNSPRP", "shrunken log2 fold change": 1.15}, {"sequence": "RRIRWRPPRLPRPRPRPPHDPRP", "shrunken log2 fold change": 0.738}, {"sequence": "RRIRRRPPRLPRPRPRPTFWPRP", "shrunken log2 fold change": 0.436}, {"sequence": "RRIRPRPPRLPRPRPRPHADPRP", "shrunken log2 fold change": -0.161}, {"sequence": "RRIRFRPPRLPRPRPRPTFDPRP", "shrunken log2 fold change": -0.138}, {"sequence": "RRIRFRPPRLPRPRPRPVEGPRP", "shrunken log2 fold change": -0.0615}, {"sequence": "RRIRERPPRLPRPRPRPTAYPRP", "shrunken log2 fold change": -0.166}, {"sequence": "RRIRNRPPRLPRPRPRPGSEPRP", "shrunken log2 fold change": -0.24}, {"sequence": "RRIRMRPPRLPRPRPRPREQPRP", "shrunken log2 fold change": 0.0355}, {"sequence": "RRIRGRPPRLPRPRPRPTDIPRP", "shrunken log2 fold change": 0.114}, {"sequence": "RRIRWRPPRLPRPRPRPQLKPRP", "shrunken log2 fold change": 0.147}, {"sequence": "RRIRGRPPRLPRPRPRPSQHPRP", "shrunken log2 fold change": 0.0187}, {"sequence": "RRIRCRPPRLPRPRPRPRVIPRP", "shrunken log2 fold change": 0.0854}, {"sequence": "RRIRNRPPRLPRPRPRPDKMPRP", "shrunken log2 fold change": 0.0206}, {"sequence": "RRIRKRPPRLPRPRPRPQFWPRP", "shrunken log2 fold change": 0.248}, {"sequence": "RRIRVRPPRLPRPRPRPNFCPRP", "shrunken log2 fold change": -0.139}, {"sequence": "RRIRQRPPRLPRPRPRPNVYPRP", "shrunken log2 fold change": -0.222}, {"sequence": "RRIRKRPPRLPRPRPRPFNTPRP", "shrunken log2 fold change": -0.0902}, {"sequence": "RRIRGRPPRLPRPRPRPHWEPRP", "shrunken log2 fold change": 0.324}, {"sequence": "RRIRLRPPRLPRPRPRPFIWPRP", "shrunken log2 fold change": 0.112}, {"sequence": "RRIRWRPPRLPRPRPRPDNIPRP", "shrunken log2 fold change": -0.12}, {"sequence": "RRIRKRPPRLPRPRPRPFRWPRP", "shrunken log2 fold change": 0.0626}, {"sequence": "RRIRCRPPRLPRPRPRPHEHPRP", "shrunken log2 fold change": 1.94}, {"sequence": "RRIRTRPPRLPRPRPRPYDWPRP", "shrunken log2 fold change": -0.696}, {"sequence": "RRIRWRPPRLPRPRPRPIVSPRP", "shrunken log2 fold change": -0.000687}, {"sequence": "RRIRMRPPRLPRPRPRPLGCPRP", "shrunken log2 fold change": 0.182}, {"sequence": "RRIRSRPPRLPRPRPRPKREPRP", "shrunken log2 fold change": 0.393}, {"sequence": "RRIRHRPPRLPRPRPRPACEPRP", "shrunken log2 fold change": 0.0343}, {"sequence": "RRIRQRPPRLPRPRPRPRMLPRP", "shrunken log2 fold change": -0.0148}, {"sequence": "RRIRDRPPRLPRPRPRPNAGPRP", "shrunken log2 fold change": 0.149}, {"sequence": "RRIRCRPPRLPRPRPRPNFIPRP", "shrunken log2 fold change": -0.616}, {"sequence": "RRIRRRPPRLPRPRPRPGMIPRP", "shrunken log2 fold change": -0.00969}, {"sequence": "RRIRPRPPRLPRPRPRPKSSPRP", "shrunken log2 fold change": -0.278}, {"sequence": "RRIRQRPPRLPRPRPRPMAAPRP", "shrunken log2 fold change": 0.127}, {"sequence": "RRIRHRPPRLPRPRPRPPTAPRP", "shrunken log2 fold change": 0.212}, {"sequence": "RRIRCRPPRLPRPRPRPPKFPRP", "shrunken log2 fold change": -0.0746}, {"sequence": "RRIRVRPPRLPRPRPRPPHYPRP", "shrunken log2 fold change": 0.1}, {"sequence": "RRIRSRPPRLPRPRPRPRHGPRP", "shrunken log2 fold change": 0.196}, {"sequence": "RRIRLRPPRLPRPRPRPTSTPRP", "shrunken log2 fold change": -0.194}, {"sequence": "RRIRMRPPRLPRPRPRPRMYPRP", "shrunken log2 fold change": -0.0804}]}]}
